Data reported in article PMC11357992, “Non-invasive mapping of systemic neutrophil dynamics upon cardiovascular injury” (Nature Cardiovascular Research, 2023).
“And” between values parts separate entries of the source, which are not always exact repeats. Equal entries are not always repeated. Where no end group is shown, it is not given here.

Experiment: Liver serum markers after PFC injection
Assay type: in vivo, mouse
Design: serum level of ALP (alkaline phosphatase) / serum level of ALT (alanine aminotransferase) / serum level of GLDH (glutamate dehydrogenase) / serum level of AST (aspartate aminotransferase): unit not given here
Conditions: 1 mM per kg BW i.v. over 3 consecutive days, blood 24 h after last injection; individual mice
Experimental: ^ConPFCs, ^mNPPFCs (each at 1 mM per kg BW) or saline were injected i.v. over 3 consecutive days. Twenty-four hours after the last injection, mice were killed, and blood samples were withdrawn to determine GLDH, AST, ALP, ALT and bilirubin levels by standard clinical procedures. Furthermore, the liver and spleen were dissected, fixed in formalin and snap frozen. Subsequently, 4-µm cryosections were cut and stained with hematoxylin and eosin as described previously.
Extended Data Fig. 3 Assessment of ^mNPPFC/^ConPFC biodistribution, liver serum markers and histology of liver and spleen. a, Biodistribution of intravenously injected ^mNPPFCs was determined via ^19F MRI measurements at distinct time points after injection (1, 3, 6 and 24 h after injection). Shown are quantification of fluorine signal intensities in the blood, liver and spleen indicating a fast wash-out from the blood accompanied by a strong influx into the liver while signal intensities in the spleen were constant over the entire observation period; a.u. = arbitrary units. b, Serum levels of GLDH (glutamate dehydrogenase), AST (aspartate aminotransferase), ALP (alkaline phosphatase), ALT (alanine aminotransferase) and bilirubin after intravenous application of NaCl as control, ^ConPFCs or ^mNPPFCs. c + d, 4 µm sections of liver (C) and spleen (D) stained with hematoxylin and eosin. Organs were excised and processed for histology 24 h post injection of NaCl (upper row), ^ConPFCs (middle), ^mNPPFCs (lower). Representative liver/spleen images of organs from three different animals are shown. Scale bars indicate 100 µm. Data are mean values ± SD of n = 6 (a), n = 4-6 (b) and n = 6 (c + d) independent experiments. Source data

DFYKPMPNLRITGGGC [mNP]
serum level of ALP (alkaline phosphatase): 4.3 and 4.6 and 15.5 and 19.1 and 10.5 and 11.8
serum level of ALT (alanine aminotransferase): 0.1 and 1 and 0.8
serum level of AST (aspartate aminotransferase): 1.5 and 6.8 and 1.6 and 1.4 and 2.5 and 2.3
serum level of GLDH (glutamate dehydrogenase): 0.89 and 1.11 and 3.48 and 0.9 and 0.22 and 0.33

SLAMFLTHSPEP-GGG-C [Con, reference compound]
serum level of ALP (alkaline phosphatase): 5.7 and 16.2 and 33.5 and 13.2 and 6.6 and 3.4
serum level of ALT (alanine aminotransferase): 1.6 and 0.9 and 0.6 and 0.8 and 1.3
serum level of AST (aspartate aminotransferase): 0.4 and 2 and 3.4 and 0.6 and 3.1 and 2.6
serum level of GLDH (glutamate dehydrogenase): 1.19 and 1.21 and 2.18 and 0.14
